Data taken from the supplement of paper PMC10567573.

B1: DUSP5 (parent)
chain: YSEYPECCVDVKPISQEKIESERA

Variants of: B1
Experiment: protein stability index of a GFP-peptide fusion (GPS, HEK-293T) (PSI 1-6); higher = more stable
Details: c terminus: a fixed tail appended
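Further: lentivirally expressed fusions sorted by FACS into six bins by GFP to DsRed ratio, PSI derived from sequencing read proportions per bin multiplied by bin number.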

Protein stability index, by site and new letter:
E17: H 3.82, Y 3.1, S 3.06, W 2.78, D 3.75, M 2.53, P 4.37, Q 3.97, I 3.17, A 4.41, K 3.21, T 3.89, F 3.43, G 3.86, N 3.61, C 3.01, R 2.95, V 2.86
V11: P 3.61, T 3.95, Q 5, C 3.38, A 4.23, D 5.42, R 3.45, W 4.09, K 4.17, M 4.09, L 3.84, N 4.51, E 4.25, F 3.53, S 4.24, Y 3.4
S15: P 4.38, G 4.45, K 3.68, L 3.68, H 4.47, D 4.81, F 3.64, A 4.16, T 3.85, C 4.14, I 3.82, V 3.96, Y 4.18, E 4.18, Q 4.05, R 4.09
D10: H 3.15, R 2.84, T 2.85, Y 3.04, M 2.91, I 2.6, C 2.69, E 4.66, W 1.74, N 2.18, F 2.47, L 2.98, P 3.96, A 3.56, K 3.71, S 3.88
I14: N 3.31, D 4.81, C 3.86, E 4.5, S 4.4, A 4.58, W 3.9, F 4.18, H 4.29, R 3.45, V 4.11, M 4.65, P 4.45, G 3.83, Y 3.84, Q 4.48, K 4.43, T 3.48
K12: M 4.18, V 4.14, F 3.83, A 4.47, N 4.07, Q 4.77, H 4.95, P 4.32, T 4.07, R 4.25, D 4.46, I 3.72, W 3.26, S 3.02, C 3.96
K18: L 3.68, V 4.16, P 3.84, G 3.39, C 3.1, H 4.41, I 4.02, A 4.17, E 4.55, T 4.52, N 4.19, W 3.73, S 3.98, M 4.3, Q 4.87
Q16: M 4.3, V 3.41, F 3.58, I 3.9, R 4.34, Y 3.37, P 4.38, L 4.19, D 4.67, H 3.99, G 4.06, S 3.85, W 2.83, E 4.33, N 4.59, A 3.74, K 3.85, T 4.03
E20: A 4.89, C 4.31
P13: V 2.85, E 4.19, D 4.47, I 3.69, R 3.48, L 3.22, Y 3.29, A 4.56, N 3.96, W 3.17, Q 4.14, C 4.88, G 4.03, F 3.85, S 3.33, H 4.03, M 3.5, T 4.18, K 4.12
I19: T 4.55, N 4.61, H 3.01, Y 3.1, G 4.34, E 4.69, Q 4.95, K 4.9, M 4.1, V 3.31, W 4.24, A 4.65, F 4.16, P 4.02
